Test results from US20040014149A1 (RIGEL PHARMACEUTICALS, published 2004).
Ends that are not written are not given here.

T1: human thioredoxin-like 32 kDa protein (hTXNL) (human, UniProt O43396 1-289, limits assumed)
T1 sequence: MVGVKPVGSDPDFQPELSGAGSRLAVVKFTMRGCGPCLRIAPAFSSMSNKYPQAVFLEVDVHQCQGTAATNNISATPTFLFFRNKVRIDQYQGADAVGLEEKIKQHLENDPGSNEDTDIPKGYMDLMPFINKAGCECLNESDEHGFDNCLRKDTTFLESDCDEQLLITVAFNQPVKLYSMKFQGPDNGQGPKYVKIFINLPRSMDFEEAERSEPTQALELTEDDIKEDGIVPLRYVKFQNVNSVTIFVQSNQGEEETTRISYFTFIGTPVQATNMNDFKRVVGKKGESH


Key:
[1] = biological target: T1, human thioredoxin-like 32 kDa protein …; assay: cell-based or functional assay
[2] = biological target: T1, human thioredoxin-like 32 kDa protein …; assay: cell-based or functional assay; remark: listed apart in the source

| endogenous epsilon inhibition ratio (TAQMAN quantitative PCR) [1] | reporter ratio (original library clone, +IL-4/+Dox to +IL-4/-Dox GFP) [1] | Reporter Ratio (A5T4 germline epsilon promoter GFP reporter line) [2] | Binder |
| --- | --- | --- | --- |
| 1.56 | 1.43 | 1.69 | PERCYMRMPPQSLADAQIYS (peptide, not shown: large carriers, also: expressed as BFP-linker-peptide fusion, construct not described) [peptide DR15wt] |
|  |  | 2.22 | AARCYMRMPPQSLADAQIYS (peptide, not shown: large carriers) [peptide DR15PE] |
|  |  | 1.35 | PERCYMRMPPQSLADAAAYS (peptide, not shown: large carriers) [peptide DR15QI] |
|  |  | 1.22 | PERCAARMPPQSLADAQIYS (peptide, not shown: large carriers) [peptide DR15YM] |
